The results in this text go back to PMC7905944 (Science signaling, 2020).

The data set deals with the molecule itself. Description: cross-linking.

B1: endogenous LGR5 of LoVo cells (receptor, human (endogenous in LoVo), UniProt O75473 22-907, looked up)
chain: GSSPRSGVLLRGCPTHCHCEPDGRMLLRVDCSDLGLSELPSNLSVFTSYLDLSMNNISQLLPNPLPSLRFLEELRLAGNALTYIPKGAFTGLYSLKVLMLQNNQLRHVPTEALQNLRSLQSLRLDANHISYVPPSCFSGLHSLRHLWLDDNALTEIPVQAFRSLSALQAMTLALNKIHHIPDYAFGNLSSLVVLHLHNNRIHSLGKKCFDGLHSLETLDLNYNNLDEFPTAIRTLSNLKELGFHSNNIRSIPEKAFVGNPSLITIHFYDNPIQFVGRSAFQHLPELRTLTLNGASQITEFPDLTGTANLESLTLTGAQISSLPQTVCNQLPNLQVLDLSYNLLEDLPSFSVCQKLQKIDLRHNEIYEIKVDTFQQLLSLRSLNLAWNKIAIIHPNAFSTLPSLIKLDLSSNLLSSFPITGLHGLTHLKLTGNHALQSLISSENFPELKVIEMPYAYQCCAFGVCENAYKISNQWNKGDNSSMDDLHKKDAGMFQAQDERDLEDFLLDFEEDLKALHSVQCSPSPGPFKPCEHLLDGWLIRIGVWTIAVLALTCNALVTSTVFRSPLYISPIKLLIGVIAAVNMLTGVSSAVLAGVDAFTFGSFARHGAWWENGVGCHVIGFLSIFASESSVFLLTLAALERGFSVKYSAKFETKAPFSSLKVIILLCALLALTMAAVPLLGGSKYGASPLCLPLPFGEPSTMGYMVALILLNSLCFLMMTIAYTKLYCNLDKGDLENIWDCSMVKHIALLLFTNCILNCPVAFLSFSSLINLTFISPEVIKFILLVVVPLPACLNPLLYILFNPHFKEDLVSLRKQTYVWTRSKHPSLMSINSDDVEKQSCDSTQALVTFTSSSITYDLPPSSVPSPAYPVTESCHLSSVAFVPCL
On to B1, for which the “stoichiometry N” value turned out to be 2.
